target: GST-tagged Nsp3 Ubl1 (UniProt P0DTD1); test: SPOT array alanine scan; conditions: parent: est. 0; read off a plot

Substance	other: signal change in % [%]
NCOA2_(1074–1089) on the SPOT array N1089A	-25
NCOA2_(1074–1089) on the SPOT array Y1084A	-62
NCOA2_(1074–1089) on the SPOT array L1087A	-40
NCOA2_(1074–1089) on the SPOT array S1074A	0
NCOA2_(1074–1089) on the SPOT array L1079A	-10
NCOA2_(1074–1089) on the SPOT array R1088A	-30
NCOA2_(1074–1089) on the SPOT array L1083A	-35
NCOA2_(1074–1089) on the SPOT array D1081A	-20
NCOA2_(1074–1089) on the SPOT array G1077A	-5
NCOA2_(1074–1089) on the SPOT array E1076A	-40
NCOA2_(1074–1089) on the SPOT array Q1082A	-45
NCOA2_(1074–1089) on the SPOT array L1080A	-85
NCOA2_(1074–1089) on the SPOT array L1085A	-50
NCOA2_(1074–1089) on the SPOT array D1075A	-5

target: GST-tagged Nsp16 (UniProt P0DTD1); test: SPOT array alanine scan; conditions: parent: est. 0; read off a plot

Substance	other: signal change in % [%]
ICA1L_(450–465) on the SPOT array L15A	-20
ICA1L_(450–465) on the SPOT array F9A	-88
ICA1L_(450–465) on the SPOT array W5A	-100
ICA1L_(450–465) on the SPOT array D11A	-10
ICA1L_(450–465) on the SPOT array S16A	-10
ICA1L_(450–465) on the SPOT array L8A	-35
ICA1L_(450–465) on the SPOT array D1A	-25
ICA1L_(450–465) on the SPOT array S3A	-57
ICA1L_(450–465) on the SPOT array L12A	-20
ICA1L_(450–465) on the SPOT array P14A	-22
ICA1L_(450–465) on the SPOT array M2A	-57
ICA1L_(450–465) on the SPOT array N7A	-48
ICA1L_(450–465) on the SPOT array F6A	-50

target: GST-tagged Nsp3 ADRP (UniProt P0DTD1); test: SPOT array alanine scan; conditions: parent: est. -10; read off a plot

Substance	other: signal change in % [%]
MBOAT1_(16–31) on the SPOT array L27A	-20
MBOAT1_(16–31) on the SPOT array S24A	-90
MBOAT1_(16–31) on the SPOT array P22A	-70
MBOAT1_(16–31) on the SPOT array Y19A	30
MBOAT1_(16–31) on the SPOT array L20A	-5
MBOAT1_(16–31) on the SPOT array P30A	-45
MBOAT1_(16–31) on the SPOT array I29A	-5
MBOAT1_(16–31) on the SPOT array T18A	10
MBOAT1_(16–31) on the SPOT array L23A	-100
MBOAT1_(16–31) on the SPOT array E25A	-100
MBOAT1_(16–31) on the SPOT array S17A	-25
MBOAT1_(16–31) on the SPOT array G28A	-50
MBOAT1_(16–31) on the SPOT array L31A	-25
MBOAT1_(16–31) on the SPOT array H21A	-55
MBOAT1_(16–31) on the SPOT array L26A	-45
MBOAT1_(16–31) on the SPOT array G16A	-15

target: Nsp3 Ubl1 (SARS-CoV-2) (UniProt P0DTD1); test: fluorescence polarisation; conditions: not given

Substance	fold higher KD than NCOA2 (1074–1089) [fold]
N_(216–231) peptide (from UniProt P0DTC9 216-231)	2

target: FITC-DYRK1B_(394–409) (human) (UniProt Q9Y463); test: fluorescence polarisation; conditions: not given

Substance	Kd [µM]
Nsp16 (from UniProt P0DTD1 6799-7096) (enzyme)	3
